Test results published in doi:10.1101/2025.11.06.685569 (bioRxiv, 2025).
One block for each binder: values may come before it.

B1: FLAG-tagged Atg9^NTR (domain or fragment, S. cerevisiae, UniProt Q12142 1-318, looked up)
chain: MERDEYQLPNSHGKNTFLSRIFGLQSDEVNPSLNSQEMSNFPLPDIERGSSLLHSTNDSREDVDENDLRVPESDQGTSTEEEDEVDEEQVQAYAPQISDGLDGDHQLNSVTSKENVLETEKSNLERLVEGSTDDSVPKVGQLSSEEEEDNEFINNDGFDDDTPLFQKSKIHEFSSKKSNTIEDGKRPLFFRHILQNNRPQRDTQKLFTSSNAIHHDKDKSANNGPRNINGNQKHGTKYFGSATQPRFTGSPLNNTNRFTKLFPLRKPNLLSNISVLNNTPEDRINTLSVKERALWKWANVENLDIFLQDVYNYYLGNG
B4: Myc-tagged Atg23 (natural protein, S. cerevisiae, UniProt Q06671 1-453, looked up)
chain: MELNQVLEKKEQILQYLGTLVGLHEKALSDVNSASQVTSIRKDITICLNDLCRINDLLVSHDGLLKREIGSLLRDKQELLELNEREQLLWKERKSWHIKQETDAAPADYVIDKDAIITISSHHRTSLNKYIESVGAENTILSNTDDSDAMIEEVQNAESSADQMIRNYKLLQLSHKQAKSEIIRLETLLRDFKKDNKFIEEELKRQSGRIRSEMGNIDFHLSKIEESKHQLMKRIGFESPLTQEKSLSEKIFNLRLSSADEDYNERQTINMKNFVHMKDLIELKIEDLQEQLMRNKNESSTVLTQRELWLDCQKKVGDLESKLITKLRSSSNSKIPPNEMSEMINSTIQYLNNLLDSSDEKLTTTLISNERDVLSKACEELHSESTTAQDGSSALPSKPIDIHKSHKGSNASSNLKQPSTPSFLVASKSPPKIGISESVVNANKNDAISKKVE
B5: untagged Atg23 (natural protein, S. cerevisiae, UniProt Q06671 1-453, looked up)
chain: MELNQVLEKKEQILQYLGTLVGLHEKALSDVNSASQVTSIRKDITICLNDLCRINDLLVSHDGLLKREIGSLLRDKQELLELNEREQLLWKERKSWHIKQETDAAPADYVIDKDAIITISSHHRTSLNKYIESVGAENTILSNTDDSDAMIEEVQNAESSADQMIRNYKLLQLSHKQAKSEIIRLETLLRDFKKDNKFIEEELKRQSGRIRSEMGNIDFHLSKIEESKHQLMKRIGFESPLTQEKSLSEKIFNLRLSSADEDYNERQTINMKNFVHMKDLIELKIEDLQEQLMRNKNESSTVLTQRELWLDCQKKVGDLESKLITKLRSSSNSKIPPNEMSEMINSTIQYLNNLLDSSDEKLTTTLISNERDVLSKACEELHSESTTAQDGSSALPSKPIDIHKSHKGSNASSNLKQPSTPSFLVASKSPPKIGISESVVNANKNDAISKKVE
B7: FLAG-tagged Atg9^CTR (domain or fragment, S. cerevisiae, UniProt Q12142 758-997, looked up)
chain: ENSEYVDGLGYVCKYAMFNMKNIDGEDTHSMDEDSLTKKIAVNGSHTLNSKRRSKFTAEDHSDKDLANNKMLQSYVYFMDDYSNSENLTGKYQLPAKKGYPNNEGDSFLNNKYSWRKQFQPGQKPELFRIGKHALGPGHNISPAIYSTRNPGKNWDNNNNGDDIKNGTNNATAKNDDNNGNNDHEYVLTESFLDSGAFPNHDVIDHNKMLNSNYNGNGILNKGGVLGLVKEYYKKSDVGR

What was measured:
untagged Atg23 = molecular target: B5; test: ITC
FLAG-tagged Atg23 = molecular target: T1, FLAG-tagged Atg23 (S. cerevisiae, UniProt Q06671 1-453); test: pull-down
T1 sequence (looked up): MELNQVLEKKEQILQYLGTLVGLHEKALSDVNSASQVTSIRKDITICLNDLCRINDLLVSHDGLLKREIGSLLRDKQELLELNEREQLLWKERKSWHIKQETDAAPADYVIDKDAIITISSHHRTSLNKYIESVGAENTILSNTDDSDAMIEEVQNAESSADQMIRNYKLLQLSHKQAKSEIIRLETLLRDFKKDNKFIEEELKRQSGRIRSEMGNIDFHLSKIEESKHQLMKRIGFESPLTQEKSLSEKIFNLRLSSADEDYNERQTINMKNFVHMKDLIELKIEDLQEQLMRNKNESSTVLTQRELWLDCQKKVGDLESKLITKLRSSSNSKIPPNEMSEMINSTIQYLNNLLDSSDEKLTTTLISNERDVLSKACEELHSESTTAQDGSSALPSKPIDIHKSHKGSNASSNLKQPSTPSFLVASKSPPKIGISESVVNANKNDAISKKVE

FLAG-tagged Atg9^CTR [1] = molecular target: B7; test: pull-down
mass photometry = molecular target: the molecule itself; test: mass photometry
FLAG-tagged Atg9^NTR = molecular target: B1; test: ITC
FLAG-tagged Atg9^CTR [2] = molecular target: B7; test: ITC
Myc-tagged Atg23 = molecular target: B4; test: pull-down
[3] = molecular target: T2, Atg23^Y16A_K42A_D43A_E380A mutant (S. cerevisiae, UniProt Q06671 1-453, Y16A | K42A | D43A | E380A); test: pull-down
T2 sequence (looked up): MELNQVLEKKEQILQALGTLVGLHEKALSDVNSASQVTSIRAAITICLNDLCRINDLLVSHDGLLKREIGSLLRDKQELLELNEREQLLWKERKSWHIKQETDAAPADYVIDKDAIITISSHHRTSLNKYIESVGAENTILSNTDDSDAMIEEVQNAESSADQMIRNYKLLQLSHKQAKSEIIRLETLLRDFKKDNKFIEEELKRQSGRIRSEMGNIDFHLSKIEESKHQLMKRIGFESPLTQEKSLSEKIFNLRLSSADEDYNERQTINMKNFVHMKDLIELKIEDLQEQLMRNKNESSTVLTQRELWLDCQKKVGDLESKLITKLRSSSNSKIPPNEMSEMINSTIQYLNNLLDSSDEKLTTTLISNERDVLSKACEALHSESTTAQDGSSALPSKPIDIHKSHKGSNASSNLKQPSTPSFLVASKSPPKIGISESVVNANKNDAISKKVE

[4] = molecular target: T3, Atg23 (no tag named in the legend) (S. cerevisiae, UniProt Q06671 1-453); test: pull-down
T3 sequence (looked up): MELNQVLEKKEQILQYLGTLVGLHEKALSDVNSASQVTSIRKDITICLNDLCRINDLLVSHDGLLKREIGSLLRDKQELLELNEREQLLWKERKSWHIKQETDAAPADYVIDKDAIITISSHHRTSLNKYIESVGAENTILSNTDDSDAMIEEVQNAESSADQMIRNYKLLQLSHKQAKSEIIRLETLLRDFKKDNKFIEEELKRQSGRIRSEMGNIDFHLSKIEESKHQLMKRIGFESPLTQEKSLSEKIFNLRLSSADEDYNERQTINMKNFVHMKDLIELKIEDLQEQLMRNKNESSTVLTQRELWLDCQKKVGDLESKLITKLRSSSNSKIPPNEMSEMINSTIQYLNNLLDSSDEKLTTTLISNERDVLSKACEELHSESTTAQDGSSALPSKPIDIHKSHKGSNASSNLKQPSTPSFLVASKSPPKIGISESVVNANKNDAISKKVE

Binder: B1
Kd (untagged Atg23): 6.7 ± 1.2 µM

binding result (FLAG-tagged Atg23): binds
B2: Myc-Atg9^CTR_939-997-StrepII^2x (domain or fragment, S. cerevisiae, UniProt Q12142 939-997, looked up)
chain: NDHEYVLTESFLDSGAFPNHDVIDHNKMLNSNYNGNGILNKGGVLGLVKEYYKKSDVGR

binding result (FLAG-tagged Atg9^CTR [1]): binds
B3: SUMO*-Atg27^CTR-StrepII^2x (domain or fragment, S. cerevisiae, UniProt P46989 223-271, looked up)
chain: TRGGSFQDFRAEFIQRSTQFLTSLPEFCKEVVSRILGRSTAQRGGYSAV

Binder: B4
stoichiometry N (mass photometry): 2

Binder: B5
stoichiometry N (FLAG-tagged Atg9^NTR): ~1
stoichiometry N (FLAG-tagged Atg9^CTR [2]): ~1

binding result (Myc-tagged Atg23): binds
B6: FLAG-tagged Atg9^CTR_Y989F_Y990F (domain or fragment, S. cerevisiae, UniProt Q12142 758-997, looked up)
chain: ENSEYVDGLGYVCKYAMFNMKNIDGEDTHSMDEDSLTKKIAVNGSHTLNSKRRSKFTAEDHSDKDLANNKMLQSYVYFMDDYSNSENLTGKYQLPAKKGYPNNEGDSFLNNKYSWRKQFQPGQKPELFRIGKHALGPGHNISPAIYSTRNPGKNWDNNNNGDDIKNGTNNATAKNDDNNGNNDHEYVLTESFLDSGAFPNHDVIDHNKMLNSNYNGNGILNKGGVLGLVKEFFKKSDVGR

Binder: B7
binding result [3]: binds
Kd (untagged Atg23): 0.54 ± 0.08 µM

binding result (Myc-tagged Atg23): binds
B8: FLAG-tagged Atg9^CTR_S948A_S969A (domain or fragment, S. cerevisiae, UniProt Q12142 758-997, looked up)
chain: ENSEYVDGLGYVCKYAMFNMKNIDGEDTHSMDEDSLTKKIAVNGSHTLNSKRRSKFTAEDHSDKDLANNKMLQSYVYFMDDYSNSENLTGKYQLPAKKGYPNNEGDSFLNNKYSWRKQFQPGQKPELFRIGKHALGPGHNISPAIYSTRNPGKNWDNNNNGDDIKNGTNNATAKNDDNNGNNDHEYVLTEAFLDSGAFPNHDVIDHNKMLNANYNGNGILNKGGVLGLVKEYYKKSDVGR

binding result [4]: binds
B9: FLAG-tagged Atg9^CTR_S948D_S969D (domain or fragment, S. cerevisiae, UniProt Q12142 758-997, looked up)
chain: ENSEYVDGLGYVCKYAMFNMKNIDGEDTHSMDEDSLTKKIAVNGSHTLNSKRRSKFTAEDHSDKDLANNKMLQSYVYFMDDYSNSENLTGKYQLPAKKGYPNNEGDSFLNNKYSWRKQFQPGQKPELFRIGKHALGPGHNISPAIYSTRNPGKNWDNNNNGDDIKNGTNNATAKNDDNNGNNDHEYVLTEDFLDSGAFPNHDVIDHNKMLNDNYNGNGILNKGGVLGLVKEYYKKSDVGR
